Measurements published in patent US20240052052A1 (ANTENGENE BIOLOGICS, published 2024).
Residue numbers refer to the chain shown, from its start.

T1: human CD24 (human, UniProt P25063 27-59, heavily glycosylated, GPI-anchored (as described in the background))
T1 construct: whole, on cells; Target of all cell-based FACS assays; also called hCD24; Cluster of differentiation 24
T1 chain (looked up): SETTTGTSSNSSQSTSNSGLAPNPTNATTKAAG

B1: 81A1F8 (antibody, V domains shown)
VH: EVQLQQSGPELVKPGASVKISCKATGYLFTGYYMNWVKQSPEKSLEWIGEINPNTGDTNNNQKFKAKATMTVDRSSSTAYMQLKRLTSEDSAVYYCVRRDYGTSLDYWGQGTTLTVSS
VL: DVQITQSPSYLAASPGETITINCRASKSINKYLAWYQEKPGKTNKLLIHSGSTLQSGIPSRFSGSRSGTDFTLTISNLEPEDFAMYYCQQHNEYPITFGAGTKLELK
notes: mouse monoclonal antibody
B2: 73H5-1G2 (antibody, V domains shown)
VH: QVQLKQSGPGLVQPSQSLSITCTVSGFSLTNYGVHWIRQSPGKGLEWLGVIWRGGSTDYNAAFMSRLSITKDNSKSQVFFQMNSLQAADTAIYYCANNYGYDCFAYWGQGTLVTVSA
VL: B1 VL with N30I, H49Y, R66G, S76T, N77S, I96L, K103R
notes: mouse monoclonal antibody
B3: 110D4G4 (antibody, V domains shown)
VH: EVQLQQSGPGLVKPGASVKISCRASGYLFTGYYMNWVKQSPEKSLEWIGEINPNTGDPRYDQKFKAKATLTVDRSSSTAYMHLKSLTSEDSAVYFCARRDYGTSLDYWGQGTTLTVTS
VL: B1 VL with N30S, H49Y, R66G, T69S, N77S, I96L
notes: mouse monoclonal antibody; also called mAb-110D4G4
B4: 56A7E3 (antibody, V domains shown)
VH: EVQLQQSGPELVKPGASVKIPCKASGYTFTAYNMDWVKQSHGMSLEWIGDINPINGGTIYNQNFEGKATLTVDKSSSTAYLELRSLTSEDTAVYYCARRGSYYYGSSHYALDFWGQGTSVSVSS
VL: DIQMTQITSSLSASLGDRVTITCRASQDISNYLNWYQQKPDGTVKLLIYYTSRLLSGVPSRFSGSGSGTDYSLTISNLEQEDIATYFCQQDHTLPRTFGGGTKLEIR
notes: mouse monoclonal antibody
B5: 58F10-1F6 (antibody, V domains shown)
VH: EVQLRQSGPELVKPGAAVKISCKASGYSFTGYHMNWVKQSPEKSLEWIGEINPITSGITYNQIFKAKATLTVDKSSSTAYLQLKSLTSEDSAVYYCTRRDYGTSLDYWGQGTTLTVSS
VL: B4 VL
notes: mouse monoclonal antibody
B6: 71A4F12 (antibody, V domains shown)
VH: B4 VH with I54N, G57D, I59V, E65K, L81M
VL: B4 VL with D17N, T22S, S30R, H92N, T93S, K103R
notes: mouse monoclonal antibody
B7: 81A1F8-VH-11/VL-21 (antibody, V domains shown)
VH: QVQLVQSGAEVKKPGASVKVSCKASGYLFTGYYMNWVRQAPGQGLEWMGEINPNTGDTNNNQKFKARVTMTVDRSISTAYMELSRLRSDDTAVYYCVRRDYGTSLDYWGQGTLVTVSS
VL: DVQITQSPSFLSASVGDRVTITCRASKSINKYLAWYQQKPGKAPKLLIHSGSTLQSGVPSRFSGSRSGTEFTLTISSLQPEDFATYYCQQHNEYPITFGQGTKLEIK
notes: humanized antibody based on 81A1F8; also called 81A1F8-1121
B8: 81A1F8-VH-21/VL-21 (antibody, V domains shown)
VH: B7 VH with I76T, R85S, D89E
VL: B7 VL
notes: humanized antibody based on 81A1F8; also called 81A1F8-2121
B9: 81A1F8-VH-11/VL-41 (antibody, V domains shown)
VH: B7 VH
VL: B7 VL with F10T, E81D
notes: humanized antibody based on 81A1F8
B10: 81A1F8-VH-21/VL-41 (antibody, V domains shown)
VH: B7 VH with I76T, R85S, D89E
VL: B7 VL with F10T, E81D
notes: humanized antibody based on 81A1F8; also called 81A1F8-2141

Target: T1, human CD24
Assay: FACS, 5637 cells
Procedure: (§1) Screening & Expansion: The subcloning plates were screened by Acumen assay and the subclones with good binding ability were expanded to 24-wells for confirmation tests. The specificity and cross-reactivity of these subclones were confirmed with FACs analysis. […] Fluorescent dye-conjugated secondary antibody was used to detect the binding of the primary antibody with the cells. Median fluorescence intensity (MFI) was measured by FACs analysis.

FACS MFI | Binder
22200 | B1
6360 | B2
47100 | B3
18500 | B4
34200 | B5
18600 | B6

Target: T1, human CD24
Assay: FACS, MCF7 cells
Procedure: as §1

FACS MFI | Binder
11500 | B1
373 | B2
21200 | B3
9190 | B4
17400 | B5
2420 | B6

Target: T1, human CD24
Assay: FACS, 5637 cells
Remark: another data set of the same source
Procedure: (§2) Sequences of some of antibodies from Table 1 were selected to generate and produce human IgG4 chimeric antibodies. […] The protocol for FACs analysis is described as follows: [0536] a. Digested cells using TrypLE™ Express Enzyme (IX); Centrifuged the harvested cells at 400 g for 5 min and discarding the supernatant. [0537] b. Washed the cells 2 times with cold FACS buffer by centrifuging at 400 g for 5 min and discarding the supernatant. [0538] c. […] Incubate at […] for 1 h. [0539] d. Washed the cells twice by using the condition in step b. Resuspended the cells with 100 μl/well diluted 2nd antibody, incubated at 4 degree for 1 h in the dark. [0540] e. Washed the cells twice by using the condition in step b. Resuspended the cells with 100 μl/well cold FACS buffer. Kept the cells in dark for FACS analysis.

EC50 [nM] | Max MFI | Binder
3.31 |  | B1
24.6 | 7440 | B2
5.89 |  | B3
31.6 |  | B4
22.4 |  | B5
39.7 |  | B6

Target: T1, human CD24
Assay: FACS, MCF7 cells
Remark: another data set of the same source
Procedure: as §2

EC50 [nM] | Max MFI | Binder
3 |  | B1
45.9 |  | B2
5.2 |  | B3
81.7 |  | B4
43.4 |  | B5
121 | 12600 | B6

Target: T1, human CD24
Assay: FACS, A549 cells
Procedure: as §2

EC50 [nM] | Max MFI | Binder
2.37 | 8660 | B1
36 | 5700 | B2
2.72 | 18400 | B3
92.4 | 3320 | B4
12.6 | 12600 | B5
1.97 | 4410 | B6

Target: T1, human CD24
Assay: FACS, Nalm1 cells
Procedure: as §1

FACS MFI | Binder
24800 | B1
58500 | B2
76200 | B3
74600 | B4
20900 | B5
45000 | B6

Target: T1, human CD24
Assay: FACS, H1975 cells
Procedure: as §1

FACS MFI | Binder
10600 | B1
2200 | B2
24900 | B3
2190 | B4
17500 | B5
7200 | B6

Target: T1, human CD24
Assay: FACS, Nalm1 cells
Remark: another data set of the same source
Procedure: as §2

EC50 [nM] | Max MFI | Binder
1.9 | 24800 | B1
33.8 | 58500 | B2
3.27 | 76200 | B3
20.9 | 74600 | B4
8.72 | 60300 | B5
6.28 | 45000 | B6

Target: T1, human CD24
Assay: FACS, H1975 cells
Remark: another data set of the same source
Procedure: as §2

EC50 [nM] | Binder
2.03 | B1
31.3 | B2
5.22 | B3
93.1 | B4
53.1 | B5
71.9 | B6

Target: T1, human CD24
Assay: FACS, HT-29 cells
Procedure: as §2

EC50 [nM] | Max MFI | Binder
2.93 | 3050 | B1
40 | 4820 | B2
2.92 | 5610 | B3
18.1 | 1460 | B4
10.8 | 4900 | B5
5.46 | 4780 | B6

Target: T1, human CD24
Assay: FACS, 293F-hCD24 cells
Procedure: as §1

FACS MFI | Binder
10300 | B1
20100 | B2
56500 | B3
26400 | B4
7420 | B5
7350 | B6

Target: T1, human CD24
Assay: FACS, 293F-hCD24 cells
Remark: another data set of the same source
Procedure: as §2

EC50 [nM] | Max MFI | Binder
1.7 | 10300 | B1
16.2 | 20100 | B2
6.55 | 56500 | B3
7.52 | 26400 | B4
24.1 | 58200 | B5
6.74 | 39400 | B6

Target: T1, human CD24
Assay: FACS, MDA-MB-468 cells
Procedure: as §2

EC50 [nM] | FACS MFI | Binder
5.23 | 24900 | B1
28 | 6400 | B2
12.2 | 52800 | B3
16.7 | 15300 | B4
38.9 | 49800 | B5
11.7 | 32500 | B6

Target: T1, human CD24
Assay: FACS, CHOK1-hCD24 cells
Procedure: as §2

EC50 [nM] | Max MFI | Binder
1.52 | 45900 | B1
23.8 | 19900 | B2
1.52 | 28900 | B3
4.85 | 36700 | B4
9.7 | 28100 | B5
1.72 | 28800 | B6

Target: T1, human CD24
Assay: flow cytometry, HT-29 and Nalm6 cells
Procedure: Briefly, HT-29 or Nalm6 cells were washed three times using PBS and firstly incubated with humanized variants. After three times washing, secondary antibody was incubated with cells. MFI of the samples was analyzed with Flow Cytometry and cells-based affinity was calculated.

binding result | Binder
binds | B7
binds | B8
binds | B9
binds | B10
